The test system of assay [1] is mucin-secreting human tumor cell line T-47D. As to the kind of experiment: In vitro tumor cell invasion assay through matrix (Boyden chamber) with stromal cells. It counts as cell-based. The following applies: anti-sTn IgG1 mAb.
From the text: To illustrate this embodiment, granulocytes (polymorphonuclear cells) were harvested by positive selection from peripheral blood, and macrophages were harvested by peritoneal wash, from C3H-SCID beige mice in order to avoid contaminating mouse NK cells, natural Abs, or any immune recognition by mouse T or B lymphocytes. In this in vitro tumor cell invasion assay, used were mucin-secreting human tumor cell line T-47D, a Boyden chamber, and a commercially available basement membrane matrix preparation (“matrix”) which solidifies into a semisolid matrix. In this assay, tested was the ability of tumor cells (2×10^4 cells) to migrate through the matrix (layered into a 6.5 mm well insert containing a polycarbonate membrane having a 3.0 μm pore size) in the following conditions: matrix alone; matrix containing stromal cells (2×10^5 cells, granulocytes and macrophages combined); matrix in the presence of anti-shed tumor antigen antibody (anti-sTn mAb; IgG1; 0.06 μg); matrix containing stromal cells in the presence of anti-sTn mAb (0.06 μg); and matrix containing stromal cells in the presence of Fab fragments (0.06 μg) of the anti-sTn mAb. […] Invasion was measured by counting the number of tumor cells per well which migrated to the bottom of the chamber after 48 to 72 hours. […]
In assay [2] the target is FcγRI on type 1 or type 2 endothelial cells. Put plainly: cell-based or functional assay.
Assay [3] has as its target murine FcγRI on murine cells (Met 129, B16F10, granulocytes, peritoneal macrophages, MH-S macrophages) (mouse) (UniProt P26151). Put plainly: cell-based or functional assay.

The results in this text go back to patent US20030138859A1, “Assay kits and methods for immune complex-mediate activation involving shed antigens” (BioCrystal, Ltd., priority 1999, published 2003).

Sequence of murine FcγRI on murine cells (Met 129, B16F10, granulocytes, peritoneal macrophages, MH-S macrophages) (mouse) (P26151 25-404): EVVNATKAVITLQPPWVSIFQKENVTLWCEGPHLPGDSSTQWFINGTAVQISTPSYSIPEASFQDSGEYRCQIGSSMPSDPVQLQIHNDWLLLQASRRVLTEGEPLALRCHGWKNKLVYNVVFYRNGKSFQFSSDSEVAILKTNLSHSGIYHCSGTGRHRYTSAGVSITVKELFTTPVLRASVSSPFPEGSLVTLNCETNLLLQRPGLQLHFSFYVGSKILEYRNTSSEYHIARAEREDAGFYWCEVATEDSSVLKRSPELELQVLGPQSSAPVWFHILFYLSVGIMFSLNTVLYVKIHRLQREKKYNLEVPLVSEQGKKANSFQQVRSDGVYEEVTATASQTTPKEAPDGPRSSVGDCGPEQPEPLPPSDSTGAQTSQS

As for `[N-]=[N+]=[N-]` [azide, sodium azide], the “reduction in tumor cell migration compared to assay in absence of the substance” value in assay [1] (0.001% per well) is recorded as ~5 fold.
On to “immune complexes comprising bovine submaxillary mucin and anti-sTn mAb (clone B72.3, IgG1)”, for which the VEGF production by type 1 endothelial cells (ELISA, 2 h) in assay [2] is > 5 pg/mL. Further, in assay [3], the IFN-γ secreted, macrophages + IC (ELISA) was determined as 5.3 pg/mL; the IFN-γ secreted, macrophages + tumor cells + IC (ELISA) came out at 4 pg/mL; the IFN-γ secreted, macrophages + tumor cells + neutrophils + IC (ELISA) turned out to be 4.1 pg/mL; the IL-1β secreted, macrophages + IC (ELISA) turned out to be 2.5 pg/mL. Also, in assay [3], the IL-1β secreted, macrophages + tumor cells + neutrophils + IC (ELISA) amounted to 22.8 pg/mL; the IL-4 secreted, macrophages + IC (ELISA) turned out to be 1.5 pg/mL; the IL-4 secreted, macrophages + tumor cells + IC (ELISA) was 1.3 pg/mL; the IL-4 secreted, macrophages + tumor cells + neutrophils + IC (ELISA) was found to be 0.6 pg/mL. Also, in assay [3], the IL-6 secreted, macrophages + IC (ELISA) amounted to 104 pg/mL and the IL-6 secreted, macrophages + tumor cells + IC (ELISA) amounted to 400 pg/mL.
In the case of “methoxysuccinyl-alanyl-alanyl-prolyl-valine-chloromethylketone [MAAPVC]”, the “reduction in tumor cell migration compared to assay in absence of the substance” value in assay [1] (0.1 μg/well) is ~5 fold.
